The record followed here is the supplement of paper PMC5998384.

Data set [1] deals with HeLa Kyoto. The data set can be described thus: solubility change mitosis vs G1/S (difference of NP-40 vs SDS log2 ratios) (log2 ratio difference); higher = more soluble in mitosis.
Data set [2] deals with HeLa Kyoto. The data set can be described thus: solubility in G1/S (NP-40 vs SDS abundance) (log2 ratio); higher = more soluble. Particulars: cell cycle stage: G1/S.
Data set [3] deals with HeLa Kyoto. The data set can be described thus: thermal stability score vs G1/S (z-score of summed log2 fold changes over temperatures); higher = more thermally stable than in G1/S.
For data set [4], the system named is HeLa Kyoto. In words: melting temperature (median over replicates), in situ; higher = more thermally stable.
The mark [5] stands for this setting: cell cycle stage: early G1 (4.5 h after nocodazole release).
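Throughout, for melting temperature (median over replicates), in situ: HeLa Kyoto cells synchronized by double thymidine or nocodazole block, proteins quantified by TMT10plex mass spectrometry, three independent biological replicates.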
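Throughout, for solubility change mitosis vs G1/S (difference of NP-40 vs SDS log2 ratios): synchronized HeLa Kyoto cells (double thymidine block for G1/S, nocodazole release for mitosis), protein amounts in NP-40 versus SDS lysates quantified by mass spectrometry, three biological replicates.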
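Throughout, for solubility in G1/S (NP-40 vs SDS abundance): HeLa Kyoto cells arrested at G1/S by double thymidine block, proteins quantified by TMT10plex mass spectrometry in mild NP-40 versus SDS extracts, three biological replicates.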
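Throughout, for thermal stability score vs G1/S (z-score of summed log2 fold changes over temperatures): synchronized HeLa Kyoto cells, proteins quantified by TMT10plex mass spectrometry, three biological replicates, mitosis taken 0.5 h after nocodazole release, G1/S directly after double thymidine block.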

For the sequence “MEELSADEIRRRRLARLAGGQTSQPTTPLTSPQRENPPGPPIAASAPGPSQSLGLNVHNMTPATSPIGASGVAHRSQSSEGVSSLSSSPSNSLETQSQSLSRSQSMDIDGVSCEKSMSQVDVDSGIENMEVDENDRREKRSLSDKEPSSGPEVSEEQALQLVCKIFRVSWKDRDRDVIFLSSLSAQFKQNPKEVFSDFKDLIGQILMEVLMMSTQTRDENPFASLTATSQPIAAAARSPDRNLLLNTGSNPGTSPMFCSVASFGASSLSSLYESSPAPTPSFWSSVPVMGPSLASPSRAASQLAVPSTPLSPHSAASGTAAGSQPSSPRYRPYTVTHPWASSGVSILSSSPSPPALASSPQAVPASSSRQRPSSTGPPLPPASPSATSRRPSSLRISPSLGASGGASNWDSYSDHFTIETCKETDMLNYLIECFDRVGIEEKKAPKMCSQPAVSQLLSNIRSQCISHTALVLQGSLTQPRSLQQPSFLVPYMLCRNLPYGFIQELVRTTHQDEEVFKQIFIPILQGLALAAKECSLDSDYFKYPLMALGELCETKFGKTHPVCNLVASLRLWLPKSLSPGCGRELQRLSYLGAFFSFSVFAEDDVKVVEKYFSGPAITLENTRVVSQSLQHYLELGRQELFKILHSILLNGETREAALSYMAAVVNANMKKAQMQTDDRLVSTDGFMLNFLWVLQQLSTKIKLETVDPTYIFHPRCRITLPNDETRVNATMEDVNDWLTELYGDQPPFSEPKFPTECFFLTLHAHHLSILPSCRRYIRRLRAIRELNRTVEDLKNNESQWKDSPLATRHREMLKRCKTQLKKLVRCKACADAGLLDESFLRRCLNFYGLLIQLLLRILDPAYPDITLPLNSDVPKVFAALPEFYVEDVAEFLFFIVQYSPQALYEPCTQDIVMFLVVMLCNQNYIRNPYLVAKLVEVMFMTNPAVQPRTQKFFEMIENHPLSTKLLVPSLMKFYTDVEHTGATSEFYDKFTIRYHISTIFKSLWQNIAHHGTFMEEFNSGKQFVRYINMLINDTTFLLDESLESLKRIHEVQEEMKNKEQWDQLPRDQQQARQSQLAQDERVSRSYLALATETVDMFHILTKQVQKPFLRPELGPRLAAMLNFNLQQLCGPKCRDLKVENPEKYGFEPKKLLDQLTDIYLQLDCARFAKAIADDQRSYSKELFEEVISKMRKAGIKSTIAIEKFKLLAEKVEEIVAKNARAEIDYSDAPDEFRDPLMDTLMTDPVRLPSGTIMDRSIILRHLLNSPTDPFNRQTLTESMLEPVPELKEQIQAWMREKQNSDH [UBE4B]”, the “solubility change mitosis (log2)” value with HeLa Kyoto [1] is -0.0982. For the same sequence, the “solubility in G1/S (log2)” value in the data set with HeLa Kyoto [2] was -0.0721. The thermal stability score was found to be 1.2 in the data set with HeLa Kyoto [3] (setting [5]) and 2.15 in the data set with HeLa Kyoto [3] (cell cycle stage: mitosis). The melting temperature was determined as 51.3 °C in the data set with HeLa Kyoto [4] (cell cycle stage: G1/S) and 51.8 °C in the data set with HeLa Kyoto [4] (cell cycle stage: mitosis).

Take “MEESGYESVLCVKPDVHVYRIPPRATNRGYRAAEWQLDQPSWSGRLRITAKGQMAYIKLEDRTSGELFAQAPVDQFPGTAVESVTDSSRYFVIRIEDGNGRRAFIGIGFGDRGDAFDFNVALQDHFKWVKQQCEFAKQAQNPDQGPKLDLGFKEGQTIKLNIANMKKKEGAAGNPRVRPASTGGLSLLPPPPGGKTSTLIPPPGEQLAVGGSLVQPAVAPSSGGAPVPWPQPNPATADIWGDFTKSTGSTSSQTQPGTGWVQF [NECAP2]”: the “solubility change mitosis (log2)” value with HeLa Kyoto [1] is -0.251. The “solubility in G1/S (log2)” value with HeLa Kyoto [2] is 0.173. Also, the figures for the thermal stability score with HeLa Kyoto [3] (setting [5]) and in the data set with HeLa Kyoto [3] (cell cycle stage: mitosis) were -0.264 and -1.02, respectively. Moreover, the melting temperature is 52.6 °C in the data set with HeLa Kyoto [4] (cell cycle stage: G1/S) and 52 °C with HeLa Kyoto [4] (cell cycle stage: mitosis).

As to “MEFAAENEGKSGGGLHSVAEGVRLSPEPGREGVRDLAGAEEFGGGEEGTGLTGIKEIGDGEEGSGQRPEEIPMDLTVVKQEIIDWPGTEGRLAGQWVEQEVEDRPEVKDENAGVLEVKQETDSSLVVKEAKVGEPEVKEEKVKEEVMDWSEVKEEKDNLEIKQEEKFVGQCIKEELMHGECVKEEKDFLKKEIVDDTKVKEEPPINHPVGCKRKLAMSRCETCGTEEAKYRCPRCMRYSCSLPCVKKHKAELTCNGVRDKTAYISIQQFTEMNLLSDYRFLEDVARTADHISRDAFLKRPISNKYMYFMKNRARRQGINLKLLPNGFTKRKENSTFFDKKKQQFCWHVKLQFPQSQAEYIEKRVPDDKTINEILKPYIDPEKSDPVIRQRLKAYIRSQTGVQILMKIEYMQQNLVRYYELDPYKSLLDNLRNKVIIEYPTLHVVLKGSNNDMKVLHQVKSESTKNVGNEN [ZNHIT6]”, the “solubility change mitosis (log2)” value in the data set on HeLa Kyoto [1] is -0.116. The “solubility in G1/S (log2)” value with HeLa Kyoto [2] was 0.0397. Also, the thermal stability score in the data set with HeLa Kyoto [3] (setting [5]) worked out at 1.3; in the data set with HeLa Kyoto [3] (cell cycle stage: mitosis), 2.06. Besides, the figures for the melting temperature in the data set on HeLa Kyoto [4] (cell cycle stage: G1/S) and in the data set on HeLa Kyoto [4] (cell cycle stage: mitosis) were 48.4 °C and 50.2 °C, respectively.

Consider “MEFSGRKWRKLRLAGDQRNASYPHCLQFYLQPPSENISLIEFENLAIDRVKLLKSVENLGVSYVKGTEQYQSKLESELRKLKFSYRENLEDEYEPRRRDHISHFILRLAYCQSEELRRWFIQQEMDLLRFRFSILPKDKIQDFLKDSQLQFEAISDEEKTLREQEIVASSPSLSGLKLGFESIYKIPFADALDLFRGRKVYLEDGFAYVPLKDIVAIILNEFRAKLSKALALTARSLPAVQSDERLQPLLNHLSHSYTGQDYSTQGNVGKISLDQIDLLSTKSFPPCMRQLHKALRENHHLRHGGRMQYGLFLKGIGLTLEQALQFWKQEFIKGKMDPDKFDKGYSYNIRHSFGKEGKRTDYTPFSCLKIILSNPPSQGDYHGCPFRHSDPELLKQKLQSYKISPGGISQILDLVKGTHYQVACQKYFEMIHNVDDCGFSLNHPNQFFCESQRILNGGKDIKKEPIQPETPQPKPSVQKTKDASSALASLNSSLEMDMEGLEDYFSEDS [PRIM2]”, for which, in the data set on HeLa Kyoto [1], the “solubility change mitosis (log2)” value is -0.116. In addition, the “solubility in G1/S (log2)” value in the data set with HeLa Kyoto [2] was determined as 0.23. The figures for the thermal stability score in the data set with HeLa Kyoto [3] (setting [5]) and in the data set with HeLa Kyoto [3] (cell cycle stage: mitosis) were 0.648 and 2.05, respectively. Moreover, the melting temperature turned out to be 48.9 °C with HeLa Kyoto [4] (cell cycle stage: G1/S) and 49 °C in the data set with HeLa Kyoto [4] (cell cycle stage: mitosis).
